Reference: patent US7371529B2, “Methods and compositions for modulating gluconeogenesis using PGC-1” (Dana-Farber Cancer Institute, Inc., priority 2001, dated 2008)

Biological target: T1, FKHR (Homo sapiens, UniProt Q12778)
T1 construct: made in house; host or cells: in vitro translation
Experiment: In vitro interaction with in vitro translated FKHR
Format: binding
Conditions: GST fusion constructs

T1 sequence (Q12778 whole entry, species assumed): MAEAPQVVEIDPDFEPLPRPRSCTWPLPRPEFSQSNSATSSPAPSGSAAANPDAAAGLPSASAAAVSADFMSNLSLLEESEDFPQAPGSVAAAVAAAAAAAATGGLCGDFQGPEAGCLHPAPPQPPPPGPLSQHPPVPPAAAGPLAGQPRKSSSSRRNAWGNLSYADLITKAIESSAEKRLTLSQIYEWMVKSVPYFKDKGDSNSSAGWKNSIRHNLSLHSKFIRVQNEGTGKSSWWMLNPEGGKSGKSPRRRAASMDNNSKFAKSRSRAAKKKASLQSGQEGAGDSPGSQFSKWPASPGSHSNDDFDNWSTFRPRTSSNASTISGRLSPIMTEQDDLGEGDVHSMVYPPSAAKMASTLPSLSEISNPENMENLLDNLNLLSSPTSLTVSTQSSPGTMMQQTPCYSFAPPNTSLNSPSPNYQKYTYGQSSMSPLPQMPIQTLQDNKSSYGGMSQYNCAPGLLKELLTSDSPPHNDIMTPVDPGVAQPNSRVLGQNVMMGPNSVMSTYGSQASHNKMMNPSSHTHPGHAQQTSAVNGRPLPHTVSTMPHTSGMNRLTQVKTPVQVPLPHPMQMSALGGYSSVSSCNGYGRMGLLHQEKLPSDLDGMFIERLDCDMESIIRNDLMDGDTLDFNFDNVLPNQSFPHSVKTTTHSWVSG

physical interaction with FKHR: not
B1: GST-PGC-1 (amino acids 1-190): GST fusion protein of amino acids 1-190 of PGC-1 (SEQ ID NO:2) (protein)
chain: MAWDMCSQDSVWSDIECAALVGEDQPLCPDLPELDLSELDVNDLDTDSFLGGLKWCSDQSEIISNQYNNEPANIFEKIDEENEANLLAVLTETLDSLPVDEDGLPSFDALTDGAVTTDNEASPSSMPDGTPPPQEAEEPSLLKKLLLAPANTQLSYNECSGLSTQNHAANHTHRIRTNPAIVKTENSWSN
modifications: left off: a dimerising Fc or GST
